This passage reports Kd results from PMC6547439.

Data set [1] addresses T1, human Argonaute-2 loaded with miR-122 (hAgo2:miR-122) (Homo sapiens, UniProt Q9UKV8 1-859). Put plainly: EMSA. On the technique in general: A gel shift assay detects complexes by their altered migration in electrophoresis.
The target of data set [2] is T1, human Argonaute-2 loaded with miR-122 …. Put plainly: EMSA. This is another data set of the same source.

In general, Kd refers to the constant that tells how readily two partners part at equilibrium. A high value points to a looser complex.

Like-named read-outs stand apart in the source and are kept apart here.

T1 sequence (Q9UKV8 whole entry): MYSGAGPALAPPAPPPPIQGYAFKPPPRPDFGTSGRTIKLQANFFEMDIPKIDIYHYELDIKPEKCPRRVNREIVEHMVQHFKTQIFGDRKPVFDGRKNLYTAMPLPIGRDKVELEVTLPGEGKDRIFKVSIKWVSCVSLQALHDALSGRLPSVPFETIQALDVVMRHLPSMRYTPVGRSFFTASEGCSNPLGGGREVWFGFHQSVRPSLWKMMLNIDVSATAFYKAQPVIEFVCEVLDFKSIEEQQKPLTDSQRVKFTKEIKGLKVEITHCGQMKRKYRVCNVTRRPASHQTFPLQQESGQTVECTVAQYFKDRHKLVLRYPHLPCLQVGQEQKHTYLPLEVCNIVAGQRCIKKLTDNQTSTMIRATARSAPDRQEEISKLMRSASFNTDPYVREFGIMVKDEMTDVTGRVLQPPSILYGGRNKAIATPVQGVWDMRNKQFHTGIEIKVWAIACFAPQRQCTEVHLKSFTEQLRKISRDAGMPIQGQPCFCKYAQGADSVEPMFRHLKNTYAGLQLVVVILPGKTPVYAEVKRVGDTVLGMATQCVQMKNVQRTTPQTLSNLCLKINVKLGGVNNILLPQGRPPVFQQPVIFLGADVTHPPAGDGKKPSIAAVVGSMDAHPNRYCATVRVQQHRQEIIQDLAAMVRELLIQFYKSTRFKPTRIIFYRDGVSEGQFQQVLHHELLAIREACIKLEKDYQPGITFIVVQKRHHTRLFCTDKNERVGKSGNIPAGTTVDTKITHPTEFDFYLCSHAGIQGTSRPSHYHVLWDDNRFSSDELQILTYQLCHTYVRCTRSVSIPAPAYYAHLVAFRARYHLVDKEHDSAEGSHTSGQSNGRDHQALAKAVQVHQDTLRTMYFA

B1: miR-122 guide / HCV S2p3,4 1-42 target (mixed)
RNA 1: UGGAGUGUGACAAUGGUGUUUGU
RNA 2: ACCUGCCCCUAAUAGGGGCGACACUCCGCCAUGAAUCACAGC
modifications: 5'-phosphate on miR-122 guide
As to B1, binding in data set [1] was put at a Kd of 0.063 ± 0.01 nM.

B2: miR-122 guide / HCV 1-42 WT target (mixed)
RNA 1: UGGAGUGUGACAAUGGUGUUUGU
RNA 2: ACCUGCCCCUAAUAGGGGCGACACUCCGCCAUGAAUCACUCC
modifications: 5'-phosphate on miR-122 guide
In turn, B2 returned a Kd in data set [2] of 0.25 ± 0.031 nM.
